Laboratory results: patent publication US20140087995A1 (published 2014)
Numbered stars: 1 amine (or outer) side, 2 acyl side, 3 side chain; on linkers, the order of the positions; unused ones are H or OH. Bridge positions count the residues as written; N and C are the ends. Side chains are listed from the residue outwards. Ends that are not written are not given here. * marks the point of attachment. C20 diacid = O=C(O)CCCCCCCCCCCCCCCCCCC(=O)*; γGlu = O=C(O)[C@H](CCC(=O)[*:2])N[*:1]

T1: human calcitonin receptor (human, UniProt P30988 25-474)
T1 construct: whole, on cells; also called hCTR; hCT
T1 sequence (looked up): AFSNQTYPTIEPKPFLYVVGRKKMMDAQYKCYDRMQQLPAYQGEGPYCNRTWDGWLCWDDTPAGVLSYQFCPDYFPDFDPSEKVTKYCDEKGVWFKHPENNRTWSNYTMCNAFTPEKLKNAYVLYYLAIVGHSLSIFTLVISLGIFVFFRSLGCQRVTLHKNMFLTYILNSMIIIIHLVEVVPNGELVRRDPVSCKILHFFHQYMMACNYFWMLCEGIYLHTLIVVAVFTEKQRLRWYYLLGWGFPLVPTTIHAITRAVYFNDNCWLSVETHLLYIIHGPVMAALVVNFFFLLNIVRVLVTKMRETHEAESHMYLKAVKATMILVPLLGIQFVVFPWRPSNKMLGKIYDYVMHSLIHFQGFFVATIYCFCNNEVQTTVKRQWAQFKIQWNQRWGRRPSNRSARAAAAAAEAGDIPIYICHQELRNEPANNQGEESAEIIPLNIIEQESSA

T2: human calcitonin receptor (human, UniProt P30988 25-474)
T2 sequence (looked up): T1 sequence (looked up)

B1: N^ε1-[(4S)-4-carboxy-4-[[(4S)-4-carboxy-4-(19-carboxynonadecanoylamino)butanoyl]amino]butanoyl]-[Arg17,Pro21,Pro27,Pro31,Pro34,Arg35]-h-amylin (peptide)
peptide: K([γGlu-γGlu-C20 diacid])CNTATCATQRLANFLRHSSPNFGAIPSSTPVGPRTY-NH2
modifications: disulfide 2-7; N-terminus assumed
SMILES: CC[C@H](C)[C@H](NC(=O)[C@H](C)NC(=O)CNC(=O)[C@H](Cc1ccccc1)NC(=O)[C@H](CC(N)=O)NC(=O)[C@@H]1CCCN1C(=O)[C@H](CO)NC(=O)[C@H](CO)NC(=O)[C@H](Cc1c[nH]cn1)NC(=O)[C@H](CCCNC(=N)N)NC(=O)[C@H](CC(C)C)NC(=O)[C@H](Cc1ccccc1)NC(=O)[C@H](CC(N)=O)NC(=O)[C@H](C)NC(=O)[C@H](CC(C)C)NC(=O)[C@H](CCCNC(=N)N)NC(=O)[C@H](CCC(N)=O)NC(=O)[C@@H](NC(=O)[C@H](C)NC(=O)[C@@H]1CSSC[C@H](NC(=O)[C@@H](N)CCCCNC(=O)CC[C@H](NC(=O)CC[C@H](NC(=O)CCCCCCCCCCCCCCCCCCC(=O)O)C(=O)O)C(=O)O)C(=O)N[C@@H](CC(N)=O)C(=O)N[C@@H]([C@@H](C)O)C(=O)N[C@@H](C)C(=O)N[C@@H]([C@@H](C)O)C(=O)N1)[C@@H](C)O)C(=O)N1CCC[C@H]1C(=O)N[C@@H](CO)C(=O)N[C@@H](CO)C(=O)N[C@H](C(=O)N1CCC[C@H]1C(=O)N[C@H](C(=O)NCC(=O)N1CCC[C@H]1C(=O)N[C@@H](CCCNC(=N)N)C(=O)N[C@H](C(=O)N[C@@H](Cc1ccc(O)cc1)C(N)=O)[C@@H](C)O)C(C)C)[C@@H](C)O
B2: N^ε1-[(4S)-4-carboxy-4-[[(4S)-4-carboxy-4-(19-carboxynonadecanoylamino)butanoyl]amino]butanoyl]-[Glu14,Arg17,Pro21,Pro27,Pro34,Phe37]-h-amylin (peptide)
peptide: K([γGlu-γGlu-C20 diacid])CNTATCATQRLAEFLRHSSPNFGAIPSSTNVGPNTF-NH2
modifications: disulfide 2-7; N-terminus assumed
SMILES: CC[C@H](C)[C@H](NC(=O)[C@H](C)NC(=O)CNC(=O)[C@H](Cc1ccccc1)NC(=O)[C@H](CC(N)=O)NC(=O)[C@@H]1CCCN1C(=O)[C@H](CO)NC(=O)[C@H](CO)NC(=O)[C@H](Cc1c[nH]cn1)NC(=O)[C@H](CCCNC(=N)N)NC(=O)[C@H](CC(C)C)NC(=O)[C@H](Cc1ccccc1)NC(=O)[C@H](CCC(=O)O)NC(=O)[C@H](C)NC(=O)[C@H](CC(C)C)NC(=O)[C@H](CCCNC(=N)N)NC(=O)[C@H](CCC(N)=O)NC(=O)[C@@H](NC(=O)[C@H](C)NC(=O)[C@@H]1CSSC[C@H](NC(=O)[C@@H](N)CCCCNC(=O)CC[C@H](NC(=O)CC[C@H](NC(=O)CCCCCCCCCCCCCCCCCCC(=O)O)C(=O)O)C(=O)O)C(=O)N[C@@H](CC(N)=O)C(=O)N[C@@H]([C@@H](C)O)C(=O)N[C@@H](C)C(=O)N[C@@H]([C@@H](C)O)C(=O)N1)[C@@H](C)O)C(=O)N1CCC[C@H]1C(=O)N[C@@H](CO)C(=O)N[C@@H](CO)C(=O)N[C@H](C(=O)N[C@@H](CC(N)=O)C(=O)N[C@H](C(=O)NCC(=O)N1CCC[C@H]1C(=O)N[C@@H](CC(N)=O)C(=O)N[C@H](C(=O)N[C@@H](Cc1ccccc1)C(N)=O)[C@@H](C)O)C(C)C)[C@@H](C)O
B3: N^ε1-[(4S)-4-carboxy-4-[[(4S)-4-carboxy-4-(19-carboxynonadecanoylamino)butanoyl]amino]butanoyl]-[Asp14,Arg17,Pro21,Pro27,Pro34,Arg35]-h-amylin (peptide)
peptide: K([γGlu-γGlu-C20 diacid])CNTATCATQRLADFLRHSSPNFGAIPSSTNVGPRTY-NH2
modifications: disulfide 2-7; N-terminus assumed
SMILES: CC[C@H](C)[C@H](NC(=O)[C@H](C)NC(=O)CNC(=O)[C@H](Cc1ccccc1)NC(=O)[C@H](CC(N)=O)NC(=O)[C@@H]1CCCN1C(=O)[C@H](CO)NC(=O)[C@H](CO)NC(=O)[C@H](Cc1c[nH]cn1)NC(=O)[C@H](CCCNC(=N)N)NC(=O)[C@H](CC(C)C)NC(=O)[C@H](Cc1ccccc1)NC(=O)[C@H](CC(=O)O)NC(=O)[C@H](C)NC(=O)[C@H](CC(C)C)NC(=O)[C@H](CCCNC(=N)N)NC(=O)[C@H](CCC(N)=O)NC(=O)[C@@H](NC(=O)[C@H](C)NC(=O)[C@@H]1CSSC[C@H](NC(=O)[C@@H](N)CCCCNC(=O)CC[C@H](NC(=O)CC[C@H](NC(=O)CCCCCCCCCCCCCCCCCCC(=O)O)C(=O)O)C(=O)O)C(=O)N[C@@H](CC(N)=O)C(=O)N[C@@H]([C@@H](C)O)C(=O)N[C@@H](C)C(=O)N[C@@H]([C@@H](C)O)C(=O)N1)[C@@H](C)O)C(=O)N1CCC[C@H]1C(=O)N[C@@H](CO)C(=O)N[C@@H](CO)C(=O)N[C@H](C(=O)N[C@@H](CC(N)=O)C(=O)N[C@H](C(=O)NCC(=O)N1CCC[C@H]1C(=O)N[C@@H](CCCNC(=N)N)C(=O)N[C@H](C(=O)N[C@@H](Cc1ccc(O)cc1)C(N)=O)[C@@H](C)O)C(C)C)[C@@H](C)O
notes: also called compound 130
B4: N^ε1-[(4S)-4-carboxy-4-[[(4S)-4-carboxy-4-(19-carboxynonadecanoylamino)butanoyl]amino]butanoyl]-[Ser14,Arg17,Pro21,Pro27,Pro34,Glu35]-h-amylin (peptide)
peptide: K([γGlu-γGlu-C20 diacid])CNTATCATQRLASFLRHSSPNFGAIPSSTNVGPETY-NH2
modifications: disulfide 2-7; N-terminus assumed
SMILES: CC[C@H](C)[C@H](NC(=O)[C@H](C)NC(=O)CNC(=O)[C@H](Cc1ccccc1)NC(=O)[C@H](CC(N)=O)NC(=O)[C@@H]1CCCN1C(=O)[C@H](CO)NC(=O)[C@H](CO)NC(=O)[C@H](Cc1c[nH]cn1)NC(=O)[C@H](CCCNC(=N)N)NC(=O)[C@H](CC(C)C)NC(=O)[C@H](Cc1ccccc1)NC(=O)[C@H](CO)NC(=O)[C@H](C)NC(=O)[C@H](CC(C)C)NC(=O)[C@H](CCCNC(=N)N)NC(=O)[C@H](CCC(N)=O)NC(=O)[C@@H](NC(=O)[C@H](C)NC(=O)[C@@H]1CSSC[C@H](NC(=O)[C@@H](N)CCCCNC(=O)CC[C@H](NC(=O)CC[C@H](NC(=O)CCCCCCCCCCCCCCCCCCC(=O)O)C(=O)O)C(=O)O)C(=O)N[C@@H](CC(N)=O)C(=O)N[C@@H]([C@@H](C)O)C(=O)N[C@@H](C)C(=O)N[C@@H]([C@@H](C)O)C(=O)N1)[C@@H](C)O)C(=O)N1CCC[C@H]1C(=O)N[C@@H](CO)C(=O)N[C@@H](CO)C(=O)N[C@H](C(=O)N[C@@H](CC(N)=O)C(=O)N[C@H](C(=O)NCC(=O)N1CCC[C@H]1C(=O)N[C@@H](CCC(=O)O)C(=O)N[C@H](C(=O)N[C@@H](Cc1ccc(O)cc1)C(N)=O)[C@@H](C)O)C(C)C)[C@@H](C)O
notes: also called compound 120
B5: N^α1-[(4S)-4-carboxy-4-(19-carboxynonadecanoylamino)butanoyl]-[Glu14,Arg17,Pro21,Pro25,Pro28,Pro29,Pro37]-h-amylin (peptide)
peptide: {C20 diacid-γGlu}-KCNTATCATQRLAEFLRHSSPNFGPILPPTNVGSNTP-NH2
modifications: disulfide 2-7
SMILES: CC[C@H](C)[C@H](NC(=O)[C@@H]1CCCN1C(=O)CNC(=O)[C@H](Cc1ccccc1)NC(=O)[C@H](CC(N)=O)NC(=O)[C@@H]1CCCN1C(=O)[C@H](CO)NC(=O)[C@H](CO)NC(=O)[C@H](Cc1c[nH]cn1)NC(=O)[C@H](CCCNC(=N)N)NC(=O)[C@H](CC(C)C)NC(=O)[C@H](Cc1ccccc1)NC(=O)[C@H](CCC(=O)O)NC(=O)[C@H](C)NC(=O)[C@H](CC(C)C)NC(=O)[C@H](CCCNC(=N)N)NC(=O)[C@H](CCC(N)=O)NC(=O)[C@@H](NC(=O)[C@H](C)NC(=O)[C@@H]1CSSC[C@H](NC(=O)[C@H](CCCCN)NC(=O)CC[C@H](NC(=O)CCCCCCCCCCCCCCCCCCC(=O)O)C(=O)O)C(=O)N[C@@H](CC(N)=O)C(=O)N[C@@H]([C@@H](C)O)C(=O)N[C@@H](C)C(=O)N[C@@H]([C@@H](C)O)C(=O)N1)[C@@H](C)O)C(=O)N[C@@H](CC(C)C)C(=O)N1CCC[C@H]1C(=O)N1CCC[C@H]1C(=O)N[C@H](C(=O)N[C@@H](CC(N)=O)C(=O)N[C@H](C(=O)NCC(=O)N[C@@H](CO)C(=O)N[C@@H](CC(N)=O)C(=O)N[C@H](C(=O)N1CCC[C@H]1C(N)=O)[C@@H](C)O)C(C)C)[C@@H](C)O
notes: Synthetic acylated analogue of human amylin; also called compound 4

Biological target: T1, human calcitonin receptor
Test: SPA competition against 125I-calcitonin, membranes of BHK cells with human calcitonin receptor (Assay VII)
How it was run: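 BHK hCTR membranes 35 ng/μL + SPA beads 0.05 mg/well; buffer 50 mM Hepes pH 7.4, 1 mM CaCl2, 5 mM MgCl₂, 0.1% OA, 0.02% Tween20. 120 min, 25° C., shaking. Scintillation count; IC50 by one-site binding competition.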

Row | IC50 [nM] | Binder
1 | 42.8 | B1
2 | 10.3 | K([γGlu-γGlu-C20 diacid])CNTATCATQRLAEFLRHSSPNFGAIPSSTNVGPHTY-NH2 (disulfide 2-7 (inferred))
3 | 2.73 | B2
4 | 127 | B3
5 | 3.44 | B4
6 | 1.56 | K([γGlu-γGlu-C20 diacid])CNTATCATQRLAEFLRHSSPNFGAILSSTPVGPETY-NH2 (disulfide 2-7 (inferred))
7 | 8.56 | K([γGlu-γGlu-C20 diacid])CNTATCATQRLADFLRHSSPNFGAIPSSTNVGPETY-NH2 (disulfide 2-7)

Biological target: T1, human calcitonin receptor
Test: ratio of IC50 at human calcitonin receptor to IC50 at human amylin receptor (SPA competition assays)
How it was run: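 Membranes (35 ng/μL final) + SPA beads, 50 mM Hepes pH 7.4 buffer with 1 mM CaCl2, 5 mM MgCl₂, 0.1% OA, 0.02% Tween20; 120 min, 25° C, shaking; centrifuged, counted; IC₅₀ by one-site binding competition.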

Row | Ratio hCT/hAmylin binding | Binder
8 | 48.6 | B1
9 | 27.3 | K([γGlu-γGlu-C20 diacid])CNTATCATQRLAEFLRHSSPNFGAIPSSTNVGPHTY-NH2 (disulfide 2-7 (inferred))
10 | 18 | B2
11 | 280 | B3
12 | 45.3 | B4
13 | 22.6 | K([γGlu-γGlu-C20 diacid])CNTATCATQRLAEFLRHSSPNFGAILSSTPVGPETY-NH2 (disulfide 2-7 (inferred))
14 | 49.8 | K([γGlu-γGlu-C20 diacid])CNTATCATQRLADFLRHSSPNFGAIPSSTNVGPETY-NH2 (disulfide 2-7)

Biological target: T2, human calcitonin receptor
Test: cell-based or functional assay

Row | hCTR funct. EC50 (CRE luciferase reporter, BHK cells) [nM] | Binder
15 | 0.07 | B5
